Where two headings read alike, the source gives them in different places.

Assay [1] addresses T1, FcγRIIb extracellular domain with C-terminal His tag (human, UniProt P31994 43-217).
T1 construct: extracellular domain; Soluble receptor used as analyte in Biacore; also called FcgRIIb
T1 sequence (looked up): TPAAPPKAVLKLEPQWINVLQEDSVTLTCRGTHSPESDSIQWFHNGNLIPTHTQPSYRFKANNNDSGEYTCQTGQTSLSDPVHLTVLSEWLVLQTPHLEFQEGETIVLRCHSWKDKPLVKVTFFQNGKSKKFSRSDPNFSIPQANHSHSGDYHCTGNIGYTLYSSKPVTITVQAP
Nature of the assay: SPR (Biacore), antibody captured, FcγR as analyte; binding relative to GpH7-A5/GpH7-B3/GpL16-k0 = 100. For orientation: In SPR one partner is held on a chip, and binding of the other changes the refractive index at the surface.

Assay [2] has as its target T2, FcγRIa extracellular domain with C-terminal His tag (human, UniProt P12314 16-292).
T2 construct: extracellular domain; Soluble receptor used as analyte in Biacore; also called FcgRI
The description is as above.

Assay [3] deals with T2, FcγRIa extracellular domain with …. Nature of the assay: ratio He/Con_1a : He/Con_2b (FcγRIa over FcγRIIb), SPR (Biacore).
The target in assay [4] is T1, FcγRIIb extracellular domain with …. The experiment in a line: SPR (Biacore), antibody captured, FcγR as analyte; binding relative to GpH7-A5/GpH7-B3/GpL16-k0 = 100. This is another data set of the same source.
The target of assay [5] is T2, FcγRIa extracellular domain with …. The description is as above. The source holds these as a separate data set.

T2 sequence (P12314 16-292): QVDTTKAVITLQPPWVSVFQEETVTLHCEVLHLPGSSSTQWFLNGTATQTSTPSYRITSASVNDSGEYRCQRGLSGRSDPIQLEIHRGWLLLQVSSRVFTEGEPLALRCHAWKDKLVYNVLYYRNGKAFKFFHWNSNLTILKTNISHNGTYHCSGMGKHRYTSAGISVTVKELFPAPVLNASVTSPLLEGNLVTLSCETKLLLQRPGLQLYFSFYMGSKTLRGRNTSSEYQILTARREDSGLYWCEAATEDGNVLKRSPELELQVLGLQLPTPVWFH

B1: GpH7-A5/GpH7-B3 variant I332_02A/GpL16-k0 (antibody, human IgG1, kappa)
heavy 1: not shown
heavy 2: not shown
light: DIVMTQSPLSLPVTPGEPASISCQASESLVHSNRNTYLHWYLQKPGQSPQLLIYKVSNRFSGVPDRFSGSGSGTDFTLKISRVEAEDVGVYYCSQNTHVPPTFGQGTKVEIERTVAAPSVFIFPPSDEQLKSGTASVVCLLNNFYPREAKVQWKVDNALQSGNSQESVTEQDSKDSTYSLSSTLTLSKADYEKHKVYACEVTHQGLSSPVTKSFNRGEC
notes: Heterodimerized IgG1, mutation in the GpH7-B3 chain only; also called He Ab
Consider B1, for which, in assay [1], the He/Con_2b came to 103 control = 100. In addition, in assay [2], the He/Con_1a came out at 88.3 control = 100.

B2: GpH7-A5/GpH7-B3 variant S267_19Q/GpL16-k0 (antibody, human IgG1, kappa)
heavy 1: not shown
heavy 2: not shown
light: DIVMTQSPLSLPVTPGEPASISCQASESLVHSNRNTYLHWYLQKPGQSPQLLIYKVSNRFSGVPDRFSGSGSGTDFTLKISRVEAEDVGVYYCSQNTHVPPTFGQGTKVEIERTVAAPSVFIFPPSDEQLKSGTASVVCLLNNFYPREAKVQWKVDNALQSGNSQESVTEQDSKDSTYSLSSTLTLSKADYEKHKVYACEVTHQGLSSPVTKSFNRGEC
notes: as for B1
Take B2: the “He_1a/2b (Ia/IIb)” value in assay [3] turned out to be 0.47. Further, the He/Con_2b in assay [4] amounted to 218 control = 100. Besides, the He/Con_1a in assay [5] turned out to be 102 control = 100.

B3: GpH7-A5/GpH7-B3 variant I332_15Y/GpL16-k0 (antibody, human IgG1, kappa)
heavy 1: not shown
heavy 2: not shown
light: DIVMTQSPLSLPVTPGEPASISCQASESLVHSNRNTYLHWYLQKPGQSPQLLIYKVSNRFSGVPDRFSGSGSGTDFTLKISRVEAEDVGVYYCSQNTHVPPTFGQGTKVEIERTVAAPSVFIFPPSDEQLKSGTASVVCLLNNFYPREAKVQWKVDNALQSGNSQESVTEQDSKDSTYSLSSTLTLSKADYEKHKVYACEVTHQGLSSPVTKSFNRGEC
notes: as for B1
As for B3, in assay [1], the He/Con_2b is 101 control = 100. This molecule had a He/Con_1a in assay [2] of 88.8 control = 100.

B4: GpH7-A5/GpH7-B3 variant S267_07I/GpL16-k0 (antibody, human IgG1, kappa)
heavy 1: not shown
heavy 2: not shown
light: DIVMTQSPLSLPVTPGEPASISCQASESLVHSNRNTYLHWYLQKPGQSPQLLIYKVSNRFSGVPDRFSGSGSGTDFTLKISRVEAEDVGVYYCSQNTHVPPTFGQGTKVEIERTVAAPSVFIFPPSDEQLKSGTASVVCLLNNFYPREAKVQWKVDNALQSGNSQESVTEQDSKDSTYSLSSTLTLSKADYEKHKVYACEVTHQGLSSPVTKSFNRGEC
notes: as for B1
Regarding B4, in assay [3], the “He_1a/2b (Ia/IIb)” value stood at 0.52. This molecule displayed a He/Con_2b in assay [4] of 192 control = 100. The He/Con_1a in assay [5] worked out at 100 control = 100.

B5: GpH7-A5/GpH7-B3 variant V266_08L/GpL16-k0 (antibody, human IgG1, kappa)
heavy 1: not shown
heavy 2: not shown
light: DIVMTQSPLSLPVTPGEPASISCQASESLVHSNRNTYLHWYLQKPGQSPQLLIYKVSNRFSGVPDRFSGSGSGTDFTLKISRVEAEDVGVYYCSQNTHVPPTFGQGTKVEIERTVAAPSVFIFPPSDEQLKSGTASVVCLLNNFYPREAKVQWKVDNALQSGNSQESVTEQDSKDSTYSLSSTLTLSKADYEKHKVYACEVTHQGLSSPVTKSFNRGEC
notes: as for B1
Consider B5, for which, in assay [3], the “He_1a/2b (Ia/IIb)” value was found to be 0.42. Also, the He/Con_2b in assay [4] amounted to 236 control = 100. Besides, the He/Con_1a in assay [5] came out at 98.1 control = 100.

B6: GpH7-A5/GpH7-B3 variant P331_20W/GpL16-k0 (antibody, human IgG1, kappa)
heavy 1: not shown
heavy 2: not shown
light: DIVMTQSPLSLPVTPGEPASISCQASESLVHSNRNTYLHWYLQKPGQSPQLLIYKVSNRFSGVPDRFSGSGSGTDFTLKISRVEAEDVGVYYCSQNTHVPPTFGQGTKVEIERTVAAPSVFIFPPSDEQLKSGTASVVCLLNNFYPREAKVQWKVDNALQSGNSQESVTEQDSKDSTYSLSSTLTLSKADYEKHKVYACEVTHQGLSSPVTKSFNRGEC
notes: as for B1
In turn, B6 yielded a He/Con_2b in assay [1] of 111 control = 100. This molecule also displayed a He/Con_1a in assay [2] of 94.5 control = 100.

B7: GpH7-A5/GpH7-B3 variant I332_14T/GpL16-k0 (antibody, human IgG1, kappa)
heavy 1: not shown
heavy 2: not shown
light: DIVMTQSPLSLPVTPGEPASISCQASESLVHSNRNTYLHWYLQKPGQSPQLLIYKVSNRFSGVPDRFSGSGSGTDFTLKISRVEAEDVGVYYCSQNTHVPPTFGQGTKVEIERTVAAPSVFIFPPSDEQLKSGTASVVCLLNNFYPREAKVQWKVDNALQSGNSQESVTEQDSKDSTYSLSSTLTLSKADYEKHKVYACEVTHQGLSSPVTKSFNRGEC
notes: as for B1
In assay [1], B7 showed a He/Con_2b of 106 control = 100. This molecule also had a He/Con_1a in assay [2] of 91.8 control = 100.

B8: GpH7-A5/GpH7-B3 variant S267_09D/GpL16-k0 (antibody, human IgG1, kappa)
heavy 1: not shown
heavy 2: not shown
light: DIVMTQSPLSLPVTPGEPASISCQASESLVHSNRNTYLHWYLQKPGQSPQLLIYKVSNRFSGVPDRFSGSGSGTDFTLKISRVEAEDVGVYYCSQNTHVPPTFGQGTKVEIERTVAAPSVFIFPPSDEQLKSGTASVVCLLNNFYPREAKVQWKVDNALQSGNSQESVTEQDSKDSTYSLSSTLTLSKADYEKHKVYACEVTHQGLSSPVTKSFNRGEC
notes: as for B1
Regarding B8, the “He_1a/2b (Ia/IIb)” value in assay [3] was determined as 0.35. This molecule displayed a He/Con_2b in assay [4] of 310 control = 100. The He/Con_1a in assay [5] was determined as 110 control = 100.

B9: GpH7-A5/GpH7-B3 variant I332_06M/GpL16-k0 (antibody, human IgG1, kappa)
heavy 1: not shown
heavy 2: not shown
light: DIVMTQSPLSLPVTPGEPASISCQASESLVHSNRNTYLHWYLQKPGQSPQLLIYKVSNRFSGVPDRFSGSGSGTDFTLKISRVEAEDVGVYYCSQNTHVPPTFGQGTKVEIERTVAAPSVFIFPPSDEQLKSGTASVVCLLNNFYPREAKVQWKVDNALQSGNSQESVTEQDSKDSTYSLSSTLTLSKADYEKHKVYACEVTHQGLSSPVTKSFNRGEC
notes: as for B1
Turning to B9, the He/Con_2b in assay [1] turned out to be 105 control = 100. In assay [2], the He/Con_1a came out at 92.3 control = 100.

B10: GpH7-A5/GpH7-B3 variant V266_07I/GpL16-k0 (antibody, human IgG1, kappa)
heavy 1: not shown
heavy 2: not shown
light: DIVMTQSPLSLPVTPGEPASISCQASESLVHSNRNTYLHWYLQKPGQSPQLLIYKVSNRFSGVPDRFSGSGSGTDFTLKISRVEAEDVGVYYCSQNTHVPPTFGQGTKVEIERTVAAPSVFIFPPSDEQLKSGTASVVCLLNNFYPREAKVQWKVDNALQSGNSQESVTEQDSKDSTYSLSSTLTLSKADYEKHKVYACEVTHQGLSSPVTKSFNRGEC
notes: as for B1
On to B10, for which the “He_1a/2b (Ia/IIb)” value in assay [3] turned out to be 0.65. Also, in assay [4], the He/Con_2b was 152 control = 100. This molecule also returned a He/Con_1a in assay [5] of 99.3 control = 100.

B11: GpH7-A5/GpH7-B3 variant S267_10E/GpL16-k0 (antibody, human IgG1, kappa)
heavy 1: not shown
heavy 2: not shown
light: DIVMTQSPLSLPVTPGEPASISCQASESLVHSNRNTYLHWYLQKPGQSPQLLIYKVSNRFSGVPDRFSGSGSGTDFTLKISRVEAEDVGVYYCSQNTHVPPTFGQGTKVEIERTVAAPSVFIFPPSDEQLKSGTASVVCLLNNFYPREAKVQWKVDNALQSGNSQESVTEQDSKDSTYSLSSTLTLSKADYEKHKVYACEVTHQGLSSPVTKSFNRGEC
notes: as for B1
On to B11, for which the “He_1a/2b (Ia/IIb)” value in assay [3] was found to be 0.28. The molecule further registered a He/Con_2b in assay [4] of 379 control = 100. For the same molecule, in assay [5], the He/Con_1a stood at 106 control = 100.

B12: GpH7-A5/GpH7-B3 variant V266_12R/GpL16-k0 (antibody, human IgG1, kappa)
heavy 1: not shown
heavy 2: not shown
light: DIVMTQSPLSLPVTPGEPASISCQASESLVHSNRNTYLHWYLQKPGQSPQLLIYKVSNRFSGVPDRFSGSGSGTDFTLKISRVEAEDVGVYYCSQNTHVPPTFGQGTKVEIERTVAAPSVFIFPPSDEQLKSGTASVVCLLNNFYPREAKVQWKVDNALQSGNSQESVTEQDSKDSTYSLSSTLTLSKADYEKHKVYACEVTHQGLSSPVTKSFNRGEC
notes: as for B1
For B12, in assay [3], the “He_1a/2b (Ia/IIb)” value is -55.6. For the same molecule, the He/Con_2b in assay [4] is -1.1 control = 100. This molecule registered a He/Con_1a in assay [5] of 59.2 control = 100.

B13: GpH7-A5/GpH7-B3 variant I332_04F/GpL16-k0 (antibody, human IgG1, kappa)
heavy 1: not shown
heavy 2: not shown
light: DIVMTQSPLSLPVTPGEPASISCQASESLVHSNRNTYLHWYLQKPGQSPQLLIYKVSNRFSGVPDRFSGSGSGTDFTLKISRVEAEDVGVYYCSQNTHVPPTFGQGTKVEIERTVAAPSVFIFPPSDEQLKSGTASVVCLLNNFYPREAKVQWKVDNALQSGNSQESVTEQDSKDSTYSLSSTLTLSKADYEKHKVYACEVTHQGLSSPVTKSFNRGEC
notes: as for B1
B13 displayed a He/Con_2b in assay [1] of 104 control = 100. Moreover, in assay [2], the He/Con_1a was 93.6 control = 100.
